Paper PMC5275738

Target: SF3b145(598–631) fragment, tag-free recombinant (isotope-labeled) (human) (UniProt Q13435)
Test: NMR titration

Chain of UniProt Q13435 (Q13435 598-631): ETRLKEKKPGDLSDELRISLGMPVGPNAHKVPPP

## human SF3b49 RRM1 (Pro5–Leu96), tag-free (from UniProt Q15427 5-96) (domain or fragment)
  Kd: 50 µM
